Assay results published in IntAct's records for PubMed 29892012.

B1: Multifunctional procollagen lysine hydroxylase and glycosyltransferase LH3 (Homo sapiens), O60568 (parent)
chain: MTSSGPGPRFLLLLPLLLPPAASASDRPRGRDPVNPEKLLVITVATAETEGYLRFLRSAEFFNYTVRTLGLGEEWRGGDVARTVGGGQKVRWLKKEMEKYADREDMIIMFVDSYDVILAGSPTELLKKFVQSGSRLLFSAESFCWPEWGLAEQYPEVGTGKRFLNSGGFIGFATTIHQIVRQWKYKDDDDDQLFYTRLYLDPGLREKLSLNLDHKSRIFQNLNGALDEVVLKFDRNRVRIRNVAYDTLPIVVHGNGPTKLQLNYLGNYVPNGWTPEGGCGFCNQDRRTLPGGQPPPRVFLAVFVEQPTPFLPRFLQRLLLLDYPPDRVTLFLHNNEVFHEPHIADSWPQLQDHFSAVKLVGPEEALSPGEARDMAMDLCRQDPECEFYFSLDADAVLTNLQTLRILIEENRKVIAPMLSRHGKLWSNFWGALSPDEYYARSEDYVELVQRKRVGVWNVPYISQAYVIRGDTLRMELPQRDVFSGSDTDPDMAFCKSFRDKGIFLHLSNQHEFGRLLATSRYDTEHLHPDLWQIFDNPVDWKEQYIHENYSRALEGEGIVEQPCPDVYWFPLLSEQMCDELVAEMEHYGQWSGGRHEDSRLAGGYENVPTVDIHMKQVGYEDQWLQLLRTYVGPMTESLFPGYHTKARAVMNFVVRYRPDEQPSLRPHHDSSTFTLNVALNHKGLDYEGGGCRFLRYDCVISSPRKGWALLHPGRLTHYHEGLPTTWGTRYIMVSFVDP
partner: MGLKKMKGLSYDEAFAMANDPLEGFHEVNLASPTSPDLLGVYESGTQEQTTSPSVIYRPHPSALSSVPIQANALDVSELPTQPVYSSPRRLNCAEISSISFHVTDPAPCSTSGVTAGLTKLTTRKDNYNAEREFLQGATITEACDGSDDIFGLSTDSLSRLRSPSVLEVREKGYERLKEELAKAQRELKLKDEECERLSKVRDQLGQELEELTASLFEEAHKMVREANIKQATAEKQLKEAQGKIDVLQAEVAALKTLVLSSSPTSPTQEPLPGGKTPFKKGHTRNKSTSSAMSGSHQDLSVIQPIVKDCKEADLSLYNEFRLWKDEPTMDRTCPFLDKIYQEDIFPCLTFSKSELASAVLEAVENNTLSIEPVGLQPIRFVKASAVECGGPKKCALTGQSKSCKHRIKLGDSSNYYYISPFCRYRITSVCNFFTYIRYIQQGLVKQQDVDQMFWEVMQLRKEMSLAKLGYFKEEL
B2: Coiled-coil alpha-helical rod protein 1 (Homo sapiens), Q8TD31 (parent)
chain: MFPPSGSTGLIPPSHFQARPLSTLPRMAPTWLSDIPLVQPPGHQDVSERRLDTQRPQVTMWERDVSSDRQEPGRRGRSWGLEGSQALSQQAEVIVRQLQELRRLEEEVRLLRETSLQQKMRLEAQAMELEALARAEKAGRAEAEGLRAALAGAEVVRKNLEEGSQRELEEVQRLHQEQLSSLTQAHEEALSSLTSKAEGLEKSLSSLETRRAGEAKELAEAQREAELLRKQLSKTQEDLEAQVTLVENLRKYVGEQVPSEVHSQTWELERQKLLETMQHLQEDRDSLHATAELLQVRVQSLTHILALQEEELTRKVQPSDSLEPEFTRKCQSLLNRWREKVFALMVQLKAQELEHSDSVKQLKGQVASLQEKVTSQSQEQAILQRSLQDKAAEVEVERMGAKGLQLELSRAQEARRRWQQQTASAEEQLRLVVNAVSSSQIWLETTMAKVEGAAAQLPSLNNRLSYAVRKVHTIRGLIARKLALAQLRQESCPLPPPVTDVSLELQQLREERNRLDAELQLSARLIQQEVGRAREQGEAERQQLSKVAQQLEQELQQTQESLASLGLQLEVARQGQQESTEEAASLRQELTQQQELYGQALQEKVAEVETRLREQLSDTERRLNEARREHAKAVVSLRQIQRRAAQEKERSQELRRLQEEARKEEGQRLARRLQELERDKNLMLATLQQEGLLSRYKQQRLLTVLPSLLDKKKSVVSSPRPPECSASAPVAAAVPTRESIKGSLSVLLDDLQDLSEAISKEEAVCQGDNLDRCSSSNPQMSS
partner: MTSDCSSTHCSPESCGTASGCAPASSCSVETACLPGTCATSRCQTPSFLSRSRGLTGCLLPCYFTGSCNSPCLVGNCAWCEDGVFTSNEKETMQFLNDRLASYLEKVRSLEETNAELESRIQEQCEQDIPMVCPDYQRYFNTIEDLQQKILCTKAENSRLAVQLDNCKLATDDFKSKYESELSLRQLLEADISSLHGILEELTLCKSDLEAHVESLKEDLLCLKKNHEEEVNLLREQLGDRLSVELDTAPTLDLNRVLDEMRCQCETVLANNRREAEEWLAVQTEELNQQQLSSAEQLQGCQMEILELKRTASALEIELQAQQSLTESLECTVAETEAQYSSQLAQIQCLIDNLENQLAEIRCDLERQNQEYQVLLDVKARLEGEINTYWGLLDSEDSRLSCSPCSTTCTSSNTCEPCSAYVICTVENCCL
B3: E3 ubiquitin-protein ligase LNX (Homo sapiens), Q8TBB1 (parent)
chain: MNQPESANDPEPLCAVCGQAHSLEENHFYSYPEEVDDDLICHICLQALLDPLDTPCGHTYCTLCLTNFLVEKDFCPMDRKPLVLQHCKKSSILVNKLLNKLLVTCPFREHCTQVLQRCDLEHHFQTSCKGASHYGLTKDRKRRSQDGCPDGCASLTATAPSPEVSAAATISLMTDEPGLDNPAYVSSAEDGQPAISPVDSGRSNRTRARPFERSTIRSRSFKKINRALSVLRRTKSGSAVANHADQGRENSENTTAPEVFPRLYHLIPDGEITSIKINRVDPSESLSIRLVGGSETPLVHIIIQHIYRDGVIARDGRLLPGDIILKVNGMDISNVPHNYAVRLLRQPCQVLWLTVMREQKFRSRNNGQAPDAYRPRDDSFHVILNKSSPEEQLGIKLVRKVDEPGVFIFNVLDGGVAYRHGQLEENDRVLAINGHDLRYGSPESAAHLIQASERRVHLVVSRQVRQRSPDIFQEAGWNSNGSWSPGPGERSNTPKPLHPTITCHEKVVNIQKDPGESLGMTVAGGASHREWDLPIYVISVEPGGVISRDGRIKTGDILLNVDGVELTEVSRSEAVALLKRTSSSIVLKALEVKEYEPQEDCSSPAALDSNHNMAPPSDWSPSWVMWLELPRCLYNCKDIVLRRNTAGSLGFCIVGGYEEYNGNKPFFIKSIVEGTPAYNDGRIRCGDILLAVNGRSTSGMIHACLARLLKELKGRITLTIVSWPGTFL
partner: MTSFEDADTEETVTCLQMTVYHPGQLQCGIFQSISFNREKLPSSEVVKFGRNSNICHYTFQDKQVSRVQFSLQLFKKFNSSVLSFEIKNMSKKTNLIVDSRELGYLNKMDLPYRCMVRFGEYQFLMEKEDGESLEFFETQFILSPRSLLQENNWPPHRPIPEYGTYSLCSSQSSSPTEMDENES
B4: E3 ubiquitin-protein ligase LNX (Homo sapiens), Q8TBB1 (parent)
chain: B3 chain
partner: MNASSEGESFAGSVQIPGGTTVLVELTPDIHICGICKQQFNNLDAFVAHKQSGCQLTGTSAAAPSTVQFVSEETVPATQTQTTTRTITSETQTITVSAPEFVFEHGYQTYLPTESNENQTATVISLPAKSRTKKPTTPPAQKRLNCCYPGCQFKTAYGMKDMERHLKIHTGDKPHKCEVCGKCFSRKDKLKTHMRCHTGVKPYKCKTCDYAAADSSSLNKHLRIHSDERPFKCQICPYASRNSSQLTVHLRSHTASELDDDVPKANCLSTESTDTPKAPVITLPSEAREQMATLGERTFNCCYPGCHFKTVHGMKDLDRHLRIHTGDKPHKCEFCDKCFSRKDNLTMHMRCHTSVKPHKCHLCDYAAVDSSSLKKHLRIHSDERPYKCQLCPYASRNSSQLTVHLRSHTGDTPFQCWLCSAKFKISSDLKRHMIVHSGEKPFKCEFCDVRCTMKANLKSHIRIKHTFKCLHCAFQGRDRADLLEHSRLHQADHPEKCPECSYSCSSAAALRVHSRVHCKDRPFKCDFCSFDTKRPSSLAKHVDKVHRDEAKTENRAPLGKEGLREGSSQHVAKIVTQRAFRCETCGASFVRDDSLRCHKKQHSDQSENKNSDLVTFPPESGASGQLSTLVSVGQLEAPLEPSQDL
B5: Coiled-coil alpha-helical rod protein 1 (Homo sapiens), Q8TD31 (parent)
chain: B2 chain
partner: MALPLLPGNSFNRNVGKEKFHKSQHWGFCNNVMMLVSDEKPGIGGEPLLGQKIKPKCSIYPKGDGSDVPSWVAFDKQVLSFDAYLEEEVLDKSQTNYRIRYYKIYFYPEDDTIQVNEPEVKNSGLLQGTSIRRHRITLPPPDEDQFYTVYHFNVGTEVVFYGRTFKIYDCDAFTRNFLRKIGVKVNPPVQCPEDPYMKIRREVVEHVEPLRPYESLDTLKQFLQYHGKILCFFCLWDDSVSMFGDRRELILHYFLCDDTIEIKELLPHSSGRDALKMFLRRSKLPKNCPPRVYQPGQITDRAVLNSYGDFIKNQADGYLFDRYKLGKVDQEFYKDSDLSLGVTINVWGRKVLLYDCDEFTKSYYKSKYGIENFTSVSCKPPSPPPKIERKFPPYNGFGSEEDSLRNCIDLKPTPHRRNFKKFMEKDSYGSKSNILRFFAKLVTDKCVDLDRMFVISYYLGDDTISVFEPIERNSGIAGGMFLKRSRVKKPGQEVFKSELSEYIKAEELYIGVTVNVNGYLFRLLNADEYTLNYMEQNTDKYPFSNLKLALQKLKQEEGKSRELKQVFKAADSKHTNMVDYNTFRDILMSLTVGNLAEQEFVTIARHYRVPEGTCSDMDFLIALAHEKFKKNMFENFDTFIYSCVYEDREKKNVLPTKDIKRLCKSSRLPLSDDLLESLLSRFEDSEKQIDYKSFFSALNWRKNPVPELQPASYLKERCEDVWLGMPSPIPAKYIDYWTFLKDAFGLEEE

Variants of: B1
Details: with rab3i_human RAB3IP

| Variant | effect of a mutation on the interaction |
| --- | --- |
| R235Q | with no effect |

Variants of: B2
Details: with KRT40, Q6A162

| Variant | effect of a mutation on the interaction |
| --- | --- |
| W337R | with no effect |

Variants of: B3
Details: with tifa_human TIFA

| Variant | effect of a mutation on the interaction |
| --- | --- |
| E295K | disrupting interaction strength |

Variants of: B4
Details: with zf64b_human ZFP64, Q9NTW7

| Variant | effect of a mutation on the interaction |
| --- | --- |
| E295K | disrupting interaction strength |

Variants of: B5
Details: with efhc2_human EFHC2, Q5JST6

| Variant | effect of a mutation on the interaction |
| --- | --- |
| W337R | disrupting interaction strength |
